According to patent US20170260251A1 (ANSUN BIOPHARMA, published 2017):

Key:
[1] = target: human plasmin (human, UniProt P00747 97-810); assay: protease inhibition constant Ki, human enzyme
[2] = target: human kallikrein (human, UniProt P03952 20-638, limits assumed); assay: protease inhibition constant Ki, human enzyme
[3] = target: human thrombin (human, UniProt P00734 328-622); assay: protease inhibition constant Ki, human enzyme
[4] = target: human coagulation factor Xa (human, UniProt P00742 41-179; P00742 235-488, limits assumed); assay: protease inhibition constant Ki, human enzyme
Chain of human coagulation factor Xa (P00742 41-179 limits assumed, chain 1 of 2): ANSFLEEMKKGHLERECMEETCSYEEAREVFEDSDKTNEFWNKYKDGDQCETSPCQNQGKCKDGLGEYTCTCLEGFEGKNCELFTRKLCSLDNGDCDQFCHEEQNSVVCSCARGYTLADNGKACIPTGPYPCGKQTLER
Chain of human coagulation factor Xa (P00742 235-488 limits assumed, chain 2 of 2): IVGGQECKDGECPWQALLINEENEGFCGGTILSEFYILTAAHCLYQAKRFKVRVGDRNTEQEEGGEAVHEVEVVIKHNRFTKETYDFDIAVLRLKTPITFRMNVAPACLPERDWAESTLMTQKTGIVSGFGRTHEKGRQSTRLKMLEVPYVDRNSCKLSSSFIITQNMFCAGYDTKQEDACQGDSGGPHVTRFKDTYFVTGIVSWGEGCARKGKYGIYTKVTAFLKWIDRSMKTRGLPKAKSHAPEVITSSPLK

[5] = target: T1, human coagulation factor VIIa (human, UniProt P08709 61-466); assay: protease inhibition constant Ki, human enzyme
T1 sequence (looked up): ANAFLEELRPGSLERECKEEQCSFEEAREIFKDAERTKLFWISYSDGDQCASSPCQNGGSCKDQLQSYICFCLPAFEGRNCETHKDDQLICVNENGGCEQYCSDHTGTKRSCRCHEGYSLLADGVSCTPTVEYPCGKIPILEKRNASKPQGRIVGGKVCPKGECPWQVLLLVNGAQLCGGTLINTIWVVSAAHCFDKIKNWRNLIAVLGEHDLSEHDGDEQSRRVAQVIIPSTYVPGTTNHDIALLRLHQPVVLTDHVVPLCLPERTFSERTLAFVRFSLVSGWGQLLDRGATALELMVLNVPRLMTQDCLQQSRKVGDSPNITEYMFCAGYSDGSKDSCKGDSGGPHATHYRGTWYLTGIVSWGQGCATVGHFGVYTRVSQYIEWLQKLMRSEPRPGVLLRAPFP

[6] = target: T2, mouse plasmin (mouse, UniProt P20918 98-812); assay: protease inhibition constant Ki, mouse enzyme
T2 construct: also called Plasmin (mice)
T2 sequence (P20918 98-812 limits assumed): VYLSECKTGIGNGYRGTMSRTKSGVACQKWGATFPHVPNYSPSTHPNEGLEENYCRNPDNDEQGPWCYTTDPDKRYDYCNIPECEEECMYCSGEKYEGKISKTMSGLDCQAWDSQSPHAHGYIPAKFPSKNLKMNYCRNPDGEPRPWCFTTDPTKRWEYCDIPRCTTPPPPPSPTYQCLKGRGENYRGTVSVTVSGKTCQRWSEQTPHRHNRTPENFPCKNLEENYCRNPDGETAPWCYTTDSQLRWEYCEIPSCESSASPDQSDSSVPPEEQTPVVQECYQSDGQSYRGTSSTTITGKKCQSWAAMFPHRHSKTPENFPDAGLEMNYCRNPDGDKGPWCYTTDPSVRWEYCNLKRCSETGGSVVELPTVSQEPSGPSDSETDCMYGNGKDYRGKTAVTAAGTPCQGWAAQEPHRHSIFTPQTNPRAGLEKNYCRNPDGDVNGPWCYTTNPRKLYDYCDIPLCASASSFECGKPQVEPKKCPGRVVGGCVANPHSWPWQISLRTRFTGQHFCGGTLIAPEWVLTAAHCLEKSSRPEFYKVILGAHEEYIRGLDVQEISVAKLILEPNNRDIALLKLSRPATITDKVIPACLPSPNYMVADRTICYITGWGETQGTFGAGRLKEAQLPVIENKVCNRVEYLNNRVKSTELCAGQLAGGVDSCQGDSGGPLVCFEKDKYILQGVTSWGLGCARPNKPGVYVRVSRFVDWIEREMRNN

[7] = target: T3, mouse kallikrein (mouse, UniProt P26262 20-638, limits assumed); assay: protease inhibition constant Ki, mouse enzyme
T3 construct: also called Kallikrein (mice)
T3 sequence (P26262 20-638 limits assumed): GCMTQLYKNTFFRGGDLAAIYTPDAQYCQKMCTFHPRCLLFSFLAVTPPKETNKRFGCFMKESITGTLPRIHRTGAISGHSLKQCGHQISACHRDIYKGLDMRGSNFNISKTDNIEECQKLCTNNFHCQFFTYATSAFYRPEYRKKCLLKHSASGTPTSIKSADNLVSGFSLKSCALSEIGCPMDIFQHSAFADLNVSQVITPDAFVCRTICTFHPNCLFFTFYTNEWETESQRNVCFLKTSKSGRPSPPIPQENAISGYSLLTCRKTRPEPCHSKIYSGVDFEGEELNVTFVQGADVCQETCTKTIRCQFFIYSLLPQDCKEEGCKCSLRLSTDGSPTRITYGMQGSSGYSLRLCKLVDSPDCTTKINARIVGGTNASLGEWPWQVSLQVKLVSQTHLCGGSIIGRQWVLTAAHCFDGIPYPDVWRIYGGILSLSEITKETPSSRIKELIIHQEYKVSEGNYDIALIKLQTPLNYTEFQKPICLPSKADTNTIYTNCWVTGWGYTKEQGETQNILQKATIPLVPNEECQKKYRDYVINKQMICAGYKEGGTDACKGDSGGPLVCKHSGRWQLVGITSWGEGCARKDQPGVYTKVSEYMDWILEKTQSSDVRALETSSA

[8] = target: T4, mouse thrombin (mouse, UniProt P19221 325-618); assay: protease inhibition constant Ki, mouse enzyme
T4 construct: also called Thrombin (mice)

[9] = target: T5, mouse coagulation factor Xa (mouse, UniProt O88947 41-180; O88947 232-481, limits assumed); assay: protease inhibition constant Ki, mouse enzyme
T5 construct: also called Xa (mice)
T5 sequence (O88947 41-180 limits assumed, chain 1 of 2): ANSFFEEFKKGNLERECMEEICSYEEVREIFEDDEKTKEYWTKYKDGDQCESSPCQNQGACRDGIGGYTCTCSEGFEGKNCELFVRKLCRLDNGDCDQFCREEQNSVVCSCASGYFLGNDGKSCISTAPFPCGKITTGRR
T5 sequence (O88947 232-481 limits assumed, chain 2 of 2): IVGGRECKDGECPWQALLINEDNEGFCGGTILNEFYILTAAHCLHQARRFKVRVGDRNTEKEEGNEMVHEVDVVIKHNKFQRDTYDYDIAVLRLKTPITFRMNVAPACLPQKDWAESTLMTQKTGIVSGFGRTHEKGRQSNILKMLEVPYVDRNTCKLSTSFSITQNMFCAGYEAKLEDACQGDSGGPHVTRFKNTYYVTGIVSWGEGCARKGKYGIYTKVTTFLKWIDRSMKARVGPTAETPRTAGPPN

[10] = target: T6, mouse coagulation factor IXa (mouse, UniProt P16294 47-192; P16294 237-471); assay: protease inhibition constant Ki, mouse enzyme
T6 construct: also called IXa (mice)
T6 sequence (P16294 47-192 limits assumed, chain 1 of 2): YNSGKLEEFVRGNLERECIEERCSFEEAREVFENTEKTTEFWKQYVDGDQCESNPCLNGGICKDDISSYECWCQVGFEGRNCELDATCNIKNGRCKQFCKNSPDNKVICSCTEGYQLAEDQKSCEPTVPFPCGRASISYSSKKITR
T6 sequence (P16294 237-471 limits assumed, chain 2 of 2): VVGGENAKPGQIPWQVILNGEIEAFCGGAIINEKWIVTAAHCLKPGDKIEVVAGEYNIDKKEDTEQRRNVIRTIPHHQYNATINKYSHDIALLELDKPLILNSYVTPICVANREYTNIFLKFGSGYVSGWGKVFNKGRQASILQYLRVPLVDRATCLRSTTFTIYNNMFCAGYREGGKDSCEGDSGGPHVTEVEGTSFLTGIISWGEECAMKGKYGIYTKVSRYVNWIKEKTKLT

Chain of human plasmin (P00747 97-810 limits assumed): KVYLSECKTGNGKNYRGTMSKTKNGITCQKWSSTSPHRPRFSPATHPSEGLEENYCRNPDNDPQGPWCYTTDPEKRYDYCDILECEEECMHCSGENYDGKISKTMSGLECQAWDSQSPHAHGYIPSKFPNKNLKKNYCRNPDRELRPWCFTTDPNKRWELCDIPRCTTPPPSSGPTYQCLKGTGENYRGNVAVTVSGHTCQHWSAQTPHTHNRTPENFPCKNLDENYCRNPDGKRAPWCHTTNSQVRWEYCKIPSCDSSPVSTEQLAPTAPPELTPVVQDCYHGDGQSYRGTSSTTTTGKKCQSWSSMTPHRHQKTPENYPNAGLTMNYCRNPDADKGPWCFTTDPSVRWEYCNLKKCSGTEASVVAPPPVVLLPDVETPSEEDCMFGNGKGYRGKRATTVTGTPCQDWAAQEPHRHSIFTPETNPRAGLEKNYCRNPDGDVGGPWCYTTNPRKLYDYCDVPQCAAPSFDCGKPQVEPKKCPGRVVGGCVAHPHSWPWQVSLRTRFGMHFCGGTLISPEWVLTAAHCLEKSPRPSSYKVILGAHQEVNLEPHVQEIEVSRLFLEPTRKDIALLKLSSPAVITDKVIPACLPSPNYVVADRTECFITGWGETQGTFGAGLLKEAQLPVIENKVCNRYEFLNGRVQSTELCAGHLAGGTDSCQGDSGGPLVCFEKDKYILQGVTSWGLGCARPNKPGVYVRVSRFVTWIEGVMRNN
Chain of human kallikrein (P03952 20-638 limits assumed): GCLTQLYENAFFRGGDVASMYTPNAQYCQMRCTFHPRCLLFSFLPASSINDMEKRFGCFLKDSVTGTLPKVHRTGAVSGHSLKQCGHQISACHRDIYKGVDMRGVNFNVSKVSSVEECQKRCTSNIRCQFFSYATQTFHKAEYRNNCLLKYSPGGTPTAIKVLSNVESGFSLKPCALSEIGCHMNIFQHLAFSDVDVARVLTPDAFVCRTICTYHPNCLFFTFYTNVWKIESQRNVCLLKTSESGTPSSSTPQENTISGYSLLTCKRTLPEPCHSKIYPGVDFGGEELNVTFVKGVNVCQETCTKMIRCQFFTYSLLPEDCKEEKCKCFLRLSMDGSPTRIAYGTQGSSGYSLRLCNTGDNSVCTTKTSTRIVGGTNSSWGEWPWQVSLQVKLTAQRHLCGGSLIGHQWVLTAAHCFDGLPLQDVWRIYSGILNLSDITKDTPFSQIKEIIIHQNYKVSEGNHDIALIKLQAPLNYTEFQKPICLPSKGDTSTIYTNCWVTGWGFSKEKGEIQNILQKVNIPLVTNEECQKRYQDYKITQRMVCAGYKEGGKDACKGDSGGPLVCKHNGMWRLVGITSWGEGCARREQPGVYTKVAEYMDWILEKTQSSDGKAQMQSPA

B1: Ecotin variant NB141 (M84R/S82H) (other)
chain: AESVQPLEKIAPYPQAEKGMKRQVIQLTPQEDESTLKVELLIGQTLEVDCNLHRLGGKLENKTLEGWGYDYYVFDKVSSPVHTRMACPDGKKEKKFVTAYLGDAGMLRYNSKLPIVVYTPDNVDVKYRVWKAEEKIDNAVVR
B1 showed a Ki [1] of 18.7 nM, a Ki [2] of 0.07 nM and a Ki [3] of 1.6 nM. The Ki [4] was 0.2 nM, the Ki [5] was 0.2 nM and the Ki [6] was 1.2 nM. It also gave a Ki [7] of 0.2 nM, a Ki [8] of 11.6 nM and a Ki [9] of 0.2 nM. It also gave a Ki [10] of 0.6 nM.
